# Publication PMC11674972
# “And” between values parts separate entries of the source, which are not always exact repeats. Equal values may be shown once.
# What was measured:
# [1] = biological target: FcγRI (Biotinylated Human CD64 Protein, His, Avitag) (human) (UniProt P12314); assay: SPR; Biacore T200; biotinylated FcγRI immobilised on streptavidin chip SA; AVT 1.875-30 nM; 1x HBS-EP pH 7.4, 22 °C; 1:1 Langmuir binding model (fit poorer than the heterogeneous ligand model)
# [2] = biological target: FcγRI (Biotinylated Human CD64 Protein, His, Avitag) (human) (UniProt P12314); assay: SPR; Biacore T200; biotinylated FcγRI immobilised on streptavidin chip SA (target 200 RU); AVT 1.875-30 nM injected 60 s at 50 uL/min; 1x HBS-EP pH 7.4, 22 °C; double referenced; heterogeneous ligand kinetics model
# [3] = biological target: FcγRI (Biotinylated Human CD64 Protein, His, Avitag) (human) (UniProt P12314); assay: SPR; Biacore T200; biotinylated FcγRI immobilised on streptavidin chip SA; AVT 1.875-30 nM; 1x HBS-EP pH 7.4, 22 °C; double referenced; steady-state affinity algorithm
# Chain of UniProt P12314 (P12314 16-292): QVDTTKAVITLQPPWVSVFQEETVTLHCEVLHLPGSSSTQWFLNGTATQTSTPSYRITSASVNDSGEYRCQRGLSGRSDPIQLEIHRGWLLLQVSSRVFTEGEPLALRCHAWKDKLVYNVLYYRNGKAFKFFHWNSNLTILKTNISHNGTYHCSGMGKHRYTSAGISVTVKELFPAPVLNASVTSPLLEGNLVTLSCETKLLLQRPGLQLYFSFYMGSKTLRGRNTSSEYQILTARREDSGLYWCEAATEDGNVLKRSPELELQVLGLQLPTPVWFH
substance,measurement,setting,value
Bevacizumab (Avastin) (antibody),Kd,[1],420 pM
same,"KD, set 1 (heterogeneous ligand model)",[2],2.67 pM and 1.55 pM and 2.59 pM
same,"KD, set 1 (heterogeneous ligand model), mean",[2],2.27 pM
same,"ka, set 1 (heterogeneous ligand model)",[2],333000 M⁻¹ s⁻¹ and 276000 M⁻¹ s⁻¹ and 335000 M⁻¹ s⁻¹
same,"ka, set 1 (heterogeneous ligand model), mean",[2],315000 M⁻¹ s⁻¹
same,"kd, set 1 (heterogeneous ligand model)",[2],8.9e-07 s⁻¹ and 4.27e-07 s⁻¹ and 8.67e-07 s⁻¹
same,"kd, set 1 (heterogeneous ligand model), mean",[2],7.28e-07 s⁻¹
same,Kd,[3],13500 pM
